In patent US9012398B2:

Target: human GLP-1 receptor (human) (UniProt P43220)

Substance | GLP1cAMPma (3693) [EC50 (nM)] Mean Value
N--ε^20-{2-(2-(2-(2-[2-(2-(4-(hexadecanoylamino)-4- carboxybutyrylamino)ethoxy)ethoxy]acetyl)ethoxy)ethoxy)acetyl)}- [Leu^14,Gln^27,Gln^28,Lys^20]Exendin-4-amide (from UniProt P26349) (peptide) | 0.093 nM
N-epsilon20-{2-(2-(2-(2-[2-(2-(4-(hexadecanoylamino)-4-(S)- carboxybutyrylamino)ethoxy)ethoxy]acetyl)ethoxy)ethoxy)acetyl)}- [[Aib2,Lys20,Gln28]Exendin-4-amide (from UniProt P26349) (peptide) | 0.0095 nM
N-ε^12-(2-(2-(2-(2-(2-(2-(2-(2-(2-Octadecanoylamino) ethoxy)ethoxy)acetylamino)ethoxy)ethoxy)acetylamino)ethoxy)ethoxy)acetyl)) [Lys^12,Leu^14,Arg^27,Gln^28]Exendin-4-(1-39)-amide (from UniProt P26349) (peptide) | 0.0035 nM
N-ε^12-[2-(2-[2-(2-[2-(2-[4-(17-carboxyheptadecanoylamino)-4(S)- carboxybutyrylamino]ethoxy)ethoxy]acetylamino)ethoxy]ethoxy)acetyl] [Lys^12,Leu^14,Arg^27,Gln^28]Exendin-4-(1-39)-amide (from UniProt P26349) (peptide) | 0.22 nM
N-ε^12-[2-(2-[2-(2-[2-(2-[4-(hexadecanoylamino)-4(S)- carboxybutyrylamino]ethoxy)ethoxy]acetylamino)ethoxy]ethoxy)acetyl] [Lys^12,Leu^14,Arg^27,Gln^28]Exendin-4-(1-39)-amide (from UniProt P26349) (peptide) | 0.006 nM
N-ε^14-(2-(2-2-(2-(2-(4-(hexadecanoylamino)-4-(S)- carboxybytyrylamino)ethoxy)ethoxy)acetylamino)ethoxy)ethoxy)acetyl [Arg^12,Lys^l4,Val^27,Arg^28]Exendin-4-(1-39)-amide (from UniProt P26349) (peptide) | 0.037 nM
N-ε^14-(2-(2-(2-(2-(2-(2-(2-(2-(2- (Octadecanoylamino)ethoxy)ethoxy)acetylamino)ethoxy)ethoxy)acetyl- amino)ethoxy)ethoxy)acetyl)[Arg^12,Lys^14,Val^27,Arg^28]Exendin-4-(1-39)- amide (from UniProt P26349) (peptide) | 0.088 nM
N-ε^14-(2-(2-(2-(2-(2-(2-(4-(Octadecanoylamino)-4(S)- carboxybutyrylamino)ethoxy)ethoxy)acetylamino)ethoxy)ethoxy)acetyl [Arg^12,Lys^14,Val^27,Arg^28]Exendin-4-(1-39)-amide (from UniProt P26349) (peptide) | 0.059 nM
N-ε^14-(2-(2-(2-(2-(2-(2-(17- carboxyheptadecanoylamino)ethoxy)ethoxy)acetylamino)ethoxy) ethoxy)acetyl[Arg^12,Lys^14,Val^27,Arg^28]Exendin-4-(1-39)-amide (from UniProt P26349) (peptide) | 3.65 nM
N-ε^20-2-(2-(2-(2-(2-(2-(4-(Hexadecanoylamino)-4(S)- carboxybutyrylamino)ethoxy)ethoxy)acetylamino)ethoxy) ethoxy)acetyl[Arg^12,27,Leu^14,Lys^20,Gln^28]Exendin-4-(1-39)-peptide amide (from UniProt P26349) | 0.033 nM
N-ε^20-(2-(2-(2-(2-(2-(2-(2-(2-(2- (Octadecanoylamino)ethoxy)ethoxy)acetylamino)ethoxy)ethoxy)acetyl- amino)ethoxy)ethoxy)acety))[Arg^12,27,28,Leu^14,Lys^20 Exendin-4(1- 39)amide (from UniProt P26349) (peptide) | 0.007 nM
N-ε^20-(2-(2-(2-(2-(2-(2-(17- carboxyheptadecanoylamino)ethoxy)ethoxy)acetylamino)ethoxy) ethoxy)acetyl)[Arg12,Leu^14,Arg^27,Gln^28,Lys^20]Exendin-4 (1-39)amide (from UniProt P26349) (peptide) | 5.45 nM
